Data: publication PMC4641155 (Molecular Imaging and Biology, 2015)
Values joined by “and” are separate entries in the source; they are usually repeats but may differ in a detail not shown here. Identical values can stand only once. Like-named read-outs stand apart in the source and are kept apart here.

Columns and labels:
caspase-3/7 = settings: cited from earlier work
Description: Molecular imaging of cell death has gained interest in oncology for monitoring tumor response to cancer therapy. Radiolabeled annexin-V was the first cell death-specific probe to be evaluated clinically. The exposure of membrane aminophospholipids such as PS and PE in the extracellular milieu provides surrogate markers for detecting cell death. PE presents one of the most abundant targets in the membrane bilayer, only preceded by phosphatidylcholine. […] Other ...

[1] = cited from earlier work
COLO205 tumors [2] = test: Ex vivo histology of tumors: cleaved caspase-3 and TUNEL; assay type: in vivo, nude mice; settings: irinotecan-treated tumors; three whole sections, ×400; n = 6; mean ± SEM
COLO205 cells = test: Muse Annexin V & Dead Cell and Caspase 3/7 assays in irinotecan-treated cells; assay type: cell-based, human
COLO205 tumors [3] = system: COLO205 tumors
[4] = Human residence time estimates scaled from mouse μSPECT time-activity curves; assay type: in vivo, human (extrapolated from mouse); settings: scaled from mouse μSPECT TACs, n = 3 non-purified, n = 6 purified
Description: (§1) Volumes of interest (VOIs) were manually drawn on the μSPECT-CT images using PMOD v3.3 (PMOD Technologies, Switzerland) to delineate the regions with distinct SPECT time-activity pattern: heart, liver, kidney, and urinary bladder, as well as whole-body. The average organ activity per volume was obtained from the co-registered μSPECT images and the non-decay corrected time activity curves (TACs) were extracted for each target organ. In order to relate the scanner units (counts/pixel) to radioactivity concentration (kilobecquerel per cubic centimeter), a scanner calibration factor was estimated by scanning a syringe with a known concentration of Tc-99m. TACs for each organ, as well as the TACs representing the activity in the remainder of the body, were fitted by a single exponential decaying function, which was then integrated to obtain the total number of disintegrations (residence time) within these regions. In order to predict human dosimetry using animal data, interspecies extrapolation is necessary. Thus, the residence times (R) were scaled to human values according to the following formula [21]: R/gorganmouse⋅kgTBweightmouse⋅gorgan/kgTBweighthuman=Rhuman
(§2) The human organ and body weight values from the standard adult male phantom taken into account are implemented in the internal dosimetry software (OLINDA/EXM v1.1) and are assumed to be constant across individuals. The body weight and organ masses for the individual mice were obtained post-mortem. For the bladder model, the fraction leaving the body via the urinary excretion system (f) and the biological half-life of the excretion (t1/2) were estimated by fitting a first-order linear system to the sum of activity in the bladder and the activity that had been excreted (calculated as total injected activity minus total body activity): y=f1−expln2/t1/2t

[5] = Projected human organ absorbed doses and effective dose (OLINDA/EXM); assay type: in vivo, human (extrapolated from mouse); settings: OLINDA/EXM v1.1, adult male model, 2-h voiding, from mouse data
Description: as §1, §2
Projected human absorbed doses to various organs and the effective doses (ED) were then computed using the aforementioned dosimetry software (weighting factors from International Commission on Radiological Protection 60), with the human residence times as input, using the standard adult male model and the dynamic voiding bladder model (2-h voiding interval).

[6] = Bladder model fit of urinary excretion; assay type: in vivo, CD1−/− nude female mice; settings: first-order fit of bladder plus excreted activity
Description: as §2

[7] = Dynamic/static whole-body μSPECT-CT biodistribution in healthy mice; assay type: in vivo; settings: female, CD1−/− nude, mouse, kidney, iv, 37 MBq, total radioactivity, 37 MBq i.v., 4 h p.i., mean ± SEM, n = 3 non-purified, n = 6 purified, read-out: renal activity (renal excretion)
[8] = In vivo tumor uptake by μSPECT-CT in COLO205 tumor-bearing mice; design: species or system nude mice; settings: female, nude, mouse, bone marrow (lumbar vertebrae and sacrum), iv, 37 MBq, total radioactivity, lumbar vertebrae and sacrum, μSPECT 4 h p.i., 37 MBq i.v.
Method: Irinotecan was administered by intra-peritoneal (i.p.) injection (80 mg/kg) three times in 1 week every other day (n = 3).

Molecule: O=C1C(=O)N(Cc2cn(CC[18F])nn2)c2ccc(S(=O)(=O)N3CCCC3COc3ccc(F)cc3F)cc21 (stereo not drawn) [[^18F]ICMT11]
- binding affinity for caspase-3/7 (caspase-3/7): nanomolar
- mean effective dose [1]: 0.025 mSv/MBq

Molecule: CCc1c2c(nc3ccc(OC(=O)N4CCC(N5CCCCC5)CC4)cc13)-c1cc3c(c(=O)n1C2)COC(=O)[C@]3(O)CC [irinotecan]
- number of CC3-positive cells (COLO205 tumors [2]): 9.5 ± 1.1
- number of TUNEL-positive cells (COLO205 tumors [2]): 10.5 ± 1.6
- level of cell necrosis (COLO205 cells; irinotecan 0.43, 4.3, 43 μM, 40 h, Muse assays): did not result in an increased level of cell necrosis
- apoptosis levels (COLO205 cells; irinotecan treatment 40 h, annexin-V binding and effector caspase activation): increase in apoptosis levels
- overall toxicity with respect to body weight loss (COLO205 tumors [3]; 80 mg/kg irinotecan, data not shown): No overall toxicity
- BLI signal change after treatment (COLO205 tumors [3]; bioluminescence imaging after vs before treatment, irinotecan 80 mg/kg i.p.): 0.75 ± 0.28
- tumor growth inhibition (COLO205 tumors [3]; day 5, irinotecan 80 mg/kg i.p. three times in 1 week, vs vehicle): 34.4 ± 6.9%

Molecule: CC(C)[C@@H]1NC(=O)[C@H](Cc2ccccc2)NC(=O)[C@@H]2NC(=O)[C@H](Cc3ccccc3)NC(=O)[C@@H]3CCCN3C(=O)CNC(=O)[C@H](Cc3ccccc3)NC(=O)[C@@H]3CNCCCC[C@@H](C(=O)O)NC(=O)[C@@H]4NC(=O)[C@H](CC(N)=O)NC(=O)CNC(=O)[C@H]([C@@H](O)C(=O)O)NC(=O)[C@H](CSC[C@@H](NC(=O)[C@H](CCC(N)=O)NC(=O)[C@H](CCCCNC(=O)c5ccc(NN)nc5)NC(=O)[C@@H](N)CS[C@H]4C)C(=O)N[C@@H](CS[C@H]2C)C(=O)N3)NC1=O [non-purified [^99mTc]duramycin] [metal not drawn]
- Mean human residence time, heart contents [4]: 0.0244 h
- Mean human residence time, kidneys [4]: 0.13 h
- Mean human residence time, liver [4]: 1.02 h
- Mean human residence time, remaining body [4]: 3.41 h
- Mean human residence time, urinary bladder contents [4]: 0.369 h
- Mean human absorbed dose, total body [5]: 2.52 × 10^−3 mGy/MBq
- Mean human organ absorbed dose, LLI wall [5]: 3.01 × 10^−3 mGy/MBq
- Mean human organ absorbed dose, ULI wall [5]: 3.10 × 10^−3 mGy/MBq
- Mean human organ absorbed dose, adrenals [5]: 3.90 × 10^−3 mGy/MBq
- Mean human organ absorbed dose, brain [5]: 1.54 × 10^−3 mGy/MBq
- Mean human organ absorbed dose, breasts [5]: 1.51 × 10^−3 mGy/MBq
- Mean human organ absorbed dose, gallbladder wall [5]: 5.38 × 10^−3 mGy/MBq
- Mean human organ absorbed dose, heart wall [5]: 3.12 × 10^−3 mGy/MBq
- Mean human organ absorbed dose, kidneys [5]: 8.45 × 10^−3 mGy/MBq
- Mean human organ absorbed dose, liver [5]: 1.27 × 10^−2 ± 5.97 × 10^−3 mGy/MBq and 1.27 × 10 ^−2 mGy/MBq
- Mean human organ absorbed dose, lungs [5]: 2.52 × 10^−3 mGy/MBq
- Mean human organ absorbed dose, muscle [5]: 2.12 × 10^−3 mGy/MBq
- Mean human organ absorbed dose, osteogenic cells [5]: 5.51 × 10^−3 mGy/MBq
- Mean human organ absorbed dose, ovaries [5]: 3.15 × 10^−3 mGy/MBq
- Mean human organ absorbed dose, pancreas [5]: 3.79 × 10^−3 mGy/MBq
- Mean human organ absorbed dose, red marrow [5]: 2.16 × 10^−3 mGy/MBq
- Mean human organ absorbed dose, skin [5]: 1.34 × 10^−3 mGy/MBq
- Mean human organ absorbed dose, small intestine [5]: 3.01 × 10^−3 mGy/MBq
- Mean human organ absorbed dose, spleen [5]: 2.48 × 10^−3 mGy/MBq
- Mean human organ absorbed dose, stomach wall [5]: 2.63 × 10^−3 mGy/MBq
- Mean human organ absorbed dose, testes [5]: 2.11 × 10^−3 mGy/MBq
- Mean human organ absorbed dose, thymus [5]: 2.03 × 10^−3 mGy/MBq
- Mean human organ absorbed dose, thyroid [5]: 1.87 × 10^−3 mGy/MBq
- Mean human organ absorbed dose, urinary bladder wall [5]: 1.66 × 10^−2 ± 4.55 × 10^−3 mGy/MBq and 1.66 × 10 ^−2 mGy/MBq
- Mean human organ absorbed dose, uterus [5]: 4.05 × 10^−3 mGy/MBq
- f, mean fraction leaving the body via the urinary excretion system [6]: 0.519
- t 1/2, mean biological half-life of the excretion [6]: 2.950 h

Molecule: CC(C)[C@@H]1NC(=O)[C@H](Cc2ccccc2)NC(=O)[C@@H]2NC(=O)[C@H](Cc3ccccc3)NC(=O)[C@@H]3CCCN3C(=O)CNC(=O)[C@H](Cc3ccccc3)NC(=O)[C@@H]3CNCCCC[C@@H](C(=O)O)NC(=O)[C@@H]4NC(=O)[C@H](CC(N)=O)NC(=O)CNC(=O)[C@H]([C@@H](O)C(=O)O)NC(=O)[C@H](CSC[C@@H](NC(=O)[C@H](CCC(N)=O)NC(=O)[C@H](CCCCNC(=O)c5ccc(NN)nc5)NC(=O)[C@@H](N)CS[C@H]4C)C(=O)N[C@@H](CS[C@H]2C)C(=O)N3)NC1=O [purified [^99mTc]duramycin, metal not drawn]
- tissue uptake per volume at 4 h [7]: 6.82 ± 0.41 %ID/mL
- SUV at 4 h ([8]; irinotecan-treated mice): 0.12 ± 0.02 SUV
- SUV at 4 h ([8]; vehicle-treated mice): 0.11 ± 0.01 SUV

Molecule: [^99mTc]HYNIC-annexin V: radiolabeled human recombinant annexin V, apoptosis imaging agent
- mean effective dose ([1]; in vivo): 0.011 mSv/MBq
